Data from paper doi:10.1101/2023.10.23.563088.

How the values were obtained:
[1] = biological target: gramicidin D (the natural mixture of linear gramicidins)
[2] = biological target: gramicidin D (the natural mixture of linear gramicidins); remark: listed apart in the source

Q: Which ANTS fluorescence quench rate by Tl+ entering DC22:1PC LUVs through gramicidin channels (GFA), rate relative to control, with remdesivir 1 to 3 μM (no observable effect at 1 μM) [1] does the source give for “gramicidin D (the natural mixture of linear gramicidins) (peptide)” here?
A: The ANTS fluorescence quench rate by Tl+ entering DC22:1PC LUVs through gramicidin channels (GFA), rate relative to control, with remdesivir 1 to 3 μM (no observable effect at 1 μM) was 2 fold.

Q: And the ANTS fluorescence quench rate by Tl+ entering DC22:1PC LUVs through gramicidin channels (GFA), rate relative to DMSO control, with ivermectin 1 to 10 μM (12-fold at 1 μM) [2]?
A: Its ANTS fluorescence quench rate by Tl+ entering DC22:1PC LUVs through gramicidin channels (GFA), rate relative to DMSO control, with ivermectin 1 to 10 μM (12-fold at 1 μM) is 17 fold.
